In paper PMC11860814:

Assays:
[1] = target: Cry1Ia38 protoxin (Bacillus thuringiensis); assay: SEC; Superdex-200 10/300 GL on an ÄKTA Explorer 100; sizes interpolated from protein standards (44-669 kDa); purified proteins loaded
[2] = target: Cry1Ia38 protoxin (Bacillus thuringiensis); assay: SDS-PAGE under non-denaturing conditions; SDS-12%PAGE of SEC peak fractions; loading buffer without SDS or β-mercaptoethanol, heated at 50 °C for 3 min to preserve oligomers
[3] = target: Cry1Ia gut fluid intermediate (GF-Int) (Bacillus thuringiensis); assay: SEC
[4] = target: Cry1Ia trypsin intermediate (T-Int) (Bacillus thuringiensis); assay: SEC
[5] = target: Cry1Ia trypsin intermediate (T-Int) (Bacillus thuringiensis); assay: SDS-PAGE under non-denaturing conditions; SDS-12%PAGE of SEC peak fractions; loading buffer without SDS or β-mercaptoethanol, heated at 50 °C for 3 min to preserve oligomers
[6] = target: fully trypsinized Cry1Ia protein (toxin) (Bacillus thuringiensis); assay: SEC; Superdex-200 10/300 GL on an ÄKTA Explorer 100; sizes interpolated from protein standards (44-669 kDa); purified proteins loaded

Substance: Cry1Ia38 protoxin (natural protein)
- stoichiometry N [1]: 2
- stoichiometry N [2]: 2

Substance: Cry1Ia gut fluid intermediate (GF-Int) (domain or fragment)
- stoichiometry N [3]: 2

Substance: Cry1Ia trypsin intermediate (T-Int) (domain or fragment)
- stoichiometry N [4]: 2
- stoichiometry N [5]: 2

Substance: fully trypsinized Cry1Ia protein (toxin) (domain or fragment)
- stoichiometry N [6]: 2
